In publication PMC7937191 (Biochemical and biophysical research communications, 2020):

Target: CXCR4-RLuc (chemokine (C-X-C motif) receptor 4 with Renilla reniformis luciferase at the C-terminus) (UniProt P61073 1-352)
Assay: FRET or BRET

CXCR4-RLuc (chemokine (C-X-C motif) receptor 4 with Renilla reniformis luciferase at the C-terminus), sequence (P61073 whole entry): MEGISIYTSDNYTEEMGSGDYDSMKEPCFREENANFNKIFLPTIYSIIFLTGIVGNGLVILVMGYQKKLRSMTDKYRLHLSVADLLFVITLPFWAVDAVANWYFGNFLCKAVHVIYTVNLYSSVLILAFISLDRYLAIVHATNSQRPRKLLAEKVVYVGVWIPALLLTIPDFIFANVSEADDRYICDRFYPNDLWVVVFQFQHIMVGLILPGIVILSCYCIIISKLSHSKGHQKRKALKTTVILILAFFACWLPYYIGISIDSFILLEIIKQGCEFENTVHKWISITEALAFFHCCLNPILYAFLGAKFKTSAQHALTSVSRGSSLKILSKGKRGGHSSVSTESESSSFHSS

| Binder | BRET50 (EYFP/Lum) |
| --- | --- |
| α1a-AR-EYFP (α1a-adrenergic receptor with enhanced yellow fluorescent protein at the C-terminus) (receptor, UniProt P35348 1-466, looked up) MVFLSGNASDSSNCTQPPAPVNISKAILLGVILGGLILFGVLGNILVILSVACHRHLHSVTHYYIVNLAVADLLLTSTVLPFSAIFEVLGYWAFGRVFCNIWAAVDVLCCTASIMGLCIISIDRYIGVSYPLRYPTIVTQRRGLMALLCVWALSLVISIGPLFGWRQPAPEDETICQINEEPGYVLFSALGSFYLPLAIILVMYCRVYVVAKRESRGLKSGLKTDKSDSEQVTLRIHRKNAPAGGSGMASAKTKTHFSVRLLKFSREKKAAKTLGIVVGCFVLCWLPFFLVMPIGSFFPDFKPSETVFKIVFWLGYLNSCINPIIYPCSSQEFKKAFQNVLRIQCLCRKQSSKHALGYTLHPPSQAVEGQHKDMVRIPVGSRETFYRISKTDGVCEWKFFSSMPRGSARITVSKDQSSCTTARVRSKSFLQVCCCVGPSTPSLDKNHQVPTIKVHTISLSENGEEV | 0.055 EYFP/Lum |
| α1b-AR-EYFP (α1b-adrenergic receptor with enhanced yellow fluorescent protein at the C-terminus) (receptor, UniProt P35368 1-520, looked up) MNPDLDTGHNTSAPAHWGELKNANFTGPNQTSSNSTLPQLDITRAISVGLVLGAFILFAIVGNILVILSVACNRHLRTPTNYFIVNLAMADLLLSFTVLPFSAALEVLGYWVLGRIFCDIWAAVDVLCCTASILSLCAISIDRYIGVRYSLQYPTLVTRRKAILALLSVWVLSTVISIGPLLGWKEPAPNDDKECGVTEEPFYALFSSLGSFYIPLAVILVMYCRVYIVAKRTTKNLEAGVMKEMSNSKELTLRIHSKNFHEDTLSSTKAKGHNPRSSIAVKLFKFSREKKAAKTLGIVVGMFILCWLPFFIALPLGSLFSTLKPPDAVFKVVFWLGYFNSCLNPIIYPCSSKEFKRAFVRILGCQCRGRGRRRRRRRRRLGGCAYTYRPWTRGGSLERSQSRKDSLDDSGSCLSGSQRTLPSASPSPGYLGRGAPPPVELCAFPEWKAPGALLSLPAPEPPGRRGRHDSGPLFTFKLLTEPESPGTDGGASNGGCEAAADVANGQPGFKSNMPLAPGQF | 0.072 EYFP/Lum |
| α1d-AR-EYFP (α1d-adrenergic receptor with enhanced yellow fluorescent protein at the C-terminus) (receptor, UniProt P25100 1-572, looked up) MTFRDLLSVSFEGPRPDSSAGGSSAGGGGGSAGGAAPSEGPAVGGVPGGAGGGGGVVGAGSGEDNRSSAGEPGSAGAGGDVNGTAAVGGLVVSAQGVGVGVFLAAFILMAVAGNLLVILSVACNRHLQTVTNYFIVNLAVADLLLSATVLPFSATMEVLGFWAFGRAFCDVWAAVDVLCCTASILSLCTISVDRYVGVRHSLKYPAIMTERKAAAILALLWVVALVVSVGPLLGWKEPVPPDERFCGITEEAGYAVFSSVCSFYLPMAVIVVMYCRVYVVARSTTRSLEAGVKRERGKASEVVLRIHCRGAATGADGAHGMRSAKGHTFRSSLSVRLLKFSREKKAAKTLAIVVGVFVLCWFPFFFVLPLGSLFPQLKPSEGVFKVIFWLGYFNSCVNPLIYPCSSREFKRAFLRLLRCQCRRRRRRRPLWRVYGHHWRASTSGLRQDCAPSSGDAPPGAPLALTALPDPDPEPPGTPEMQAPVASRRKPPSAFREWRLLGPFRRPTTQLRAKVSSLSHKIRAGGAQRAEAACAQRSEVEAVSLGVPHEVAEGATCQAYELADYSNLRETDI | 0.051 EYFP/Lum |
